Results taken from patent US20230220042A1 (SHANGHAI JIAO TONG UNIVERSITY SCHOOL OF MEDICINE, published 2023).

Assays:
Biotin-FcγRIIB [1] = target: T1, Biotin-FcγRIIB (human, UniProt P31994 43-217, limits assumed, biotin-labelled); assay: FACS sorting of displayed Fc library on biotin-FcγRIIB, NGS; reference P271G
T1 construct: Bought, biotin-labelled; used at 1 µg/ml for staining and sorting; also called human FcγRIIB; CD32b
T1 sequence (looked up): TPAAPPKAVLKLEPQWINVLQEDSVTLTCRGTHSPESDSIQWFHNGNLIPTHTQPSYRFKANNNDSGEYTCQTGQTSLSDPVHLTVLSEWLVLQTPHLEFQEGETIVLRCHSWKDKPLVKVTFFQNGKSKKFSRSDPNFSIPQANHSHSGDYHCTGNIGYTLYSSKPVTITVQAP

Biotin-FcγRIIB [2] = target: T1, Biotin-FcγRIIB; assay: FACS sorting of displayed Fc library on biotin-FcγRIIB, NGS

B1: human IgG2 anti-mouse CD40 surface displayed antibody, Fc mutant P271G/P331T (antibody, name in EU numbering)
light chain (with the P2A rest): DTVLTQSPALAVSPGERVTISCRASDSVSTLMHWYQQKPGQQPKLLIYLASHLESGVPARFSGSGSGTDFTLTIDPVEADDTATYYCQQSWNDPWTFGGGTKLELKRTVAAPSVFIFPPSDEQLKSGTASVVCLLNNFYPREAKVQWKVDNALQSGNSQESVTEQDSKDSTYSLSSTLTLSKADYEKHKVYACEVTHQGLSSPVTKSFNRGECGSGATNFSLLKQAGDVEENPG
heavy chain: EVQLVESDGGLVQPGRSLKLPCAASGFTFSDYYMAWVRQAPTKGLEWVASISYDGSSTYYRDSVKGRFTISRDNAKSTLYLQMDSLRSEDTATYYCGRHSSYFDYWGQGVMVTVSSASTKGPSVFPLAPCSRSTSESTAALGCLVKDYFPEPVTVSWNSGALTSGVHTFPAVLQSSGLYSLSSVVTVPSSNFGTQTYTCNVDHKPSNTKVDKTVERKCCVECPPCPAPPVAGPSVFLFPPKPKDTLMISRTPEVTCVVVDVSHEDGEVQFNWYVDGVEVHNAKTKPREEQFNSTFRVVSVLTVVHQDWLNGKEYKCKVSNKGLPATIEKTISKTKGQPREPQVYTLPPSREEMTKNQVSLTCLVKGFYPSDIAVEWESNGQPENNYKTTPPMLDSDGSFFLYSKLTVDKSRWQQGNVFSCSVMHEALHNHYTQKSLSLSPGKLEPPPSTVSNMATVAVLVVLGAAIVTGAVVAFVMKMRRRNTGGKGGDYALAPGSQTSDLSLPDCKVMVHDPHSLA
notes: as m1; positions are Eu numbers; copies: 2 + 2
Increased factor 2 c Site 1 (combined/point mutation) (Biotin-FcγRIIB [1]): 9.1 | Enrichment factor (after/before sorting) (Biotin-FcγRIIB [2]): 32.3 | Increased factor a (enrichment factor/wild-type enrichment factor) (Biotin-FcγRIIB [2]): 43.2

B2: human IgG2 anti-mouse CD40 surface displayed antibody, Fc mutant P271G/S298D (antibody, name in EU numbering)
light chain (with the P2A rest): DTVLTQSPALAVSPGERVTISCRASDSVSTLMHWYQQKPGQQPKLLIYLASHLESGVPARFSGSGSGTDFTLTIDPVEADDTATYYCQQSWNDPWTFGGGTKLELKRTVAAPSVFIFPPSDEQLKSGTASVVCLLNNFYPREAKVQWKVDNALQSGNSQESVTEQDSKDSTYSLSSTLTLSKADYEKHKVYACEVTHQGLSSPVTKSFNRGECGSGATNFSLLKQAGDVEENPG
heavy chain: EVQLVESDGGLVQPGRSLKLPCAASGFTFSDYYMAWVRQAPTKGLEWVASISYDGSSTYYRDSVKGRFTISRDNAKSTLYLQMDSLRSEDTATYYCGRHSSYFDYWGQGVMVTVSSASTKGPSVFPLAPCSRSTSESTAALGCLVKDYFPEPVTVSWNSGALTSGVHTFPAVLQSSGLYSLSSVVTVPSSNFGTQTYTCNVDHKPSNTKVDKTVERKCCVECPPCPAPPVAGPSVFLFPPKPKDTLMISRTPEVTCVVVDVSHEDGEVQFNWYVDGVEVHNAKTKPREEQFNDTFRVVSVLTVVHQDWLNGKEYKCKVSNKGLPAPIEKTISKTKGQPREPQVYTLPPSREEMTKNQVSLTCLVKGFYPSDIAVEWESNGQPENNYKTTPPMLDSDGSFFLYSKLTVDKSRWQQGNVFSCSVMHEALHNHYTQKSLSLSPGKLEPPPSTVSNMATVAVLVVLGAAIVTGAVVAFVMKMRRRNTGGKGGDYALAPGSQTSDLSLPDCKVMVHDPHSLA
notes: as for B1
Increased factor 2 c Site 1 (combined/point mutation) (Biotin-FcγRIIB [1]): 1.9 | Enrichment factor (after/before sorting) (Biotin-FcγRIIB [2]): 6.78 | Increased factor a (enrichment factor/wild-type enrichment factor) (Biotin-FcγRIIB [2]): 9.06

B3: human IgG2 anti-mouse CD40 surface displayed antibody, Fc mutant P271G/S298E (antibody, name in EU numbering)
light chain (with the P2A rest): DTVLTQSPALAVSPGERVTISCRASDSVSTLMHWYQQKPGQQPKLLIYLASHLESGVPARFSGSGSGTDFTLTIDPVEADDTATYYCQQSWNDPWTFGGGTKLELKRTVAAPSVFIFPPSDEQLKSGTASVVCLLNNFYPREAKVQWKVDNALQSGNSQESVTEQDSKDSTYSLSSTLTLSKADYEKHKVYACEVTHQGLSSPVTKSFNRGECGSGATNFSLLKQAGDVEENPG
heavy chain: EVQLVESDGGLVQPGRSLKLPCAASGFTFSDYYMAWVRQAPTKGLEWVASISYDGSSTYYRDSVKGRFTISRDNAKSTLYLQMDSLRSEDTATYYCGRHSSYFDYWGQGVMVTVSSASTKGPSVFPLAPCSRSTSESTAALGCLVKDYFPEPVTVSWNSGALTSGVHTFPAVLQSSGLYSLSSVVTVPSSNFGTQTYTCNVDHKPSNTKVDKTVERKCCVECPPCPAPPVAGPSVFLFPPKPKDTLMISRTPEVTCVVVDVSHEDGEVQFNWYVDGVEVHNAKTKPREEQFNETFRVVSVLTVVHQDWLNGKEYKCKVSNKGLPAPIEKTISKTKGQPREPQVYTLPPSREEMTKNQVSLTCLVKGFYPSDIAVEWESNGQPENNYKTTPPMLDSDGSFFLYSKLTVDKSRWQQGNVFSCSVMHEALHNHYTQKSLSLSPGKLEPPPSTVSNMATVAVLVVLGAAIVTGAVVAFVMKMRRRNTGGKGGDYALAPGSQTSDLSLPDCKVMVHDPHSLA
notes: as for B1
Increased factor 2 c Site 1 (combined/point mutation) (Biotin-FcγRIIB [1]): 84.2 | Enrichment factor (after/before sorting) (Biotin-FcγRIIB [2]): 298 | Increased factor a (enrichment factor/wild-type enrichment factor) (Biotin-FcγRIIB [2]): 398

B4: human IgG2 anti-mouse CD40 surface displayed antibody, Fc mutant P271G/S298G (antibody, name in EU numbering)
light chain (with the P2A rest): DTVLTQSPALAVSPGERVTISCRASDSVSTLMHWYQQKPGQQPKLLIYLASHLESGVPARFSGSGSGTDFTLTIDPVEADDTATYYCQQSWNDPWTFGGGTKLELKRTVAAPSVFIFPPSDEQLKSGTASVVCLLNNFYPREAKVQWKVDNALQSGNSQESVTEQDSKDSTYSLSSTLTLSKADYEKHKVYACEVTHQGLSSPVTKSFNRGECGSGATNFSLLKQAGDVEENPG
heavy chain: EVQLVESDGGLVQPGRSLKLPCAASGFTFSDYYMAWVRQAPTKGLEWVASISYDGSSTYYRDSVKGRFTISRDNAKSTLYLQMDSLRSEDTATYYCGRHSSYFDYWGQGVMVTVSSASTKGPSVFPLAPCSRSTSESTAALGCLVKDYFPEPVTVSWNSGALTSGVHTFPAVLQSSGLYSLSSVVTVPSSNFGTQTYTCNVDHKPSNTKVDKTVERKCCVECPPCPAPPVAGPSVFLFPPKPKDTLMISRTPEVTCVVVDVSHEDGEVQFNWYVDGVEVHNAKTKPREEQFNGTFRVVSVLTVVHQDWLNGKEYKCKVSNKGLPAPIEKTISKTKGQPREPQVYTLPPSREEMTKNQVSLTCLVKGFYPSDIAVEWESNGQPENNYKTTPPMLDSDGSFFLYSKLTVDKSRWQQGNVFSCSVMHEALHNHYTQKSLSLSPGKLEPPPSTVSNMATVAVLVVLGAAIVTGAVVAFVMKMRRRNTGGKGGDYALAPGSQTSDLSLPDCKVMVHDPHSLA
notes: as for B1
Increased factor 2 c Site 1 (combined/point mutation) (Biotin-FcγRIIB [1]): 2.8 | Enrichment factor (after/before sorting) (Biotin-FcγRIIB [2]): 9.73 | Increased factor a (enrichment factor/wild-type enrichment factor) (Biotin-FcγRIIB [2]): 13
